How the values were obtained:
[1] = target: human TNFR2 on cells (human) (UniProt P20333); assay: flow cytometry on human PBMC, antibody at 10 ug/mL, anti-human Fc-PE secondary; negative control
[2] = target: cynomolgus TNFR2 on cells (cynomolgus); assay: flow cytometry on cynomolgus PBMC, antibody at 10 ug/mL, anti-human Fc-PE secondary; negative control

Chain of human TNFR2 on cells (human) (P20333 23-461): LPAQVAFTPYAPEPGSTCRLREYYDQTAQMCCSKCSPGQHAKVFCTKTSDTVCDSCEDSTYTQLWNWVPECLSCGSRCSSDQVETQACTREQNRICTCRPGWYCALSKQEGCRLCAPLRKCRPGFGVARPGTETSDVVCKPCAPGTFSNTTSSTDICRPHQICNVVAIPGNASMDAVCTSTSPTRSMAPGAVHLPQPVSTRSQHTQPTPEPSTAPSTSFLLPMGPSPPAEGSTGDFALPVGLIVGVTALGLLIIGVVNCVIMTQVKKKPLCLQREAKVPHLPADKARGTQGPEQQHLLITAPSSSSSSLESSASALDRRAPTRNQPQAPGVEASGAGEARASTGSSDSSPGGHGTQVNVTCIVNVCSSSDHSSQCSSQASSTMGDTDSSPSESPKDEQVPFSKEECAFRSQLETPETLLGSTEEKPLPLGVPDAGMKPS

“Isotype Control (Negative Control) (antibody)” showed a % CD4^+ ab^+ Donor 1 [1] of 0.7%, a % CD4^+ ab^+ Donor 2 [1] of 0.7% and a % CD8^+ ab^+ Donor 1 [1] of 0.5%. The % CD8^+ ab^+ Donor 2 [1] was 0.7%, the % CD4^+ ab^+ Donor 1 [2] was 0.2% and the % CD4^+ ab^+ Donor 2 [2] was 0.5%. The % CD8^+ ab^+ Donor 1 [2] was 0.2% and the % CD8^+ ab^+ Donor 2 [2] was 0.6%.

Source: patent US20190202925A1
